This is an account of results in patent US20260209387A1, “SINGLE-DOMAIN ANTIBODY FOR INHIBITION OF NEUTROPHIL ELASTASE ACTIVITY” (UNIVERSITE DE LIEGE, priority 2023, published 2026).

Experiment [1] addresses T1, hNE (Homo sapiens, UniProt P08246).
T1 construct: purchased Elastin Products Company (EPC)
T1 sequence (P08246 30-247): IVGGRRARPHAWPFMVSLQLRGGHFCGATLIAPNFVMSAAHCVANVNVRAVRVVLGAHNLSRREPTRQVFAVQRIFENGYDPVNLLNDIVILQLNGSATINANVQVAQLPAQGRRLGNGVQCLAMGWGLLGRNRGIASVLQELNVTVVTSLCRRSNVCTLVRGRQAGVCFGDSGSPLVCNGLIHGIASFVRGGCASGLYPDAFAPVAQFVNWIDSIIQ
The experiment in a line: BLI specificity assay, hNE positive control. In kind it is binding. To be noted: 50 nM protease. The protocol:
The specificity of NbE201 for hNE was also investigated by BLI. Biotinylated NbE201 (10 μg/mL) was immobilized on streptavidin biosensors (SA, Sartorius) following provider's indications. The biosensors were then immersed in a 50 nM solution of a serine protease. The proteases tested were human cathepsin G (hCG), human proteinase 3 (hPR3), mouse pancreatic elastase (mPE), mouse neutrophil elastase (mNE) and porcine pancreatic elastase (pPE). hNE was used a positive control. The association and dissociation were measured for 70 s and 320 s respectively, in kinetic buffer (KB, Sartorius). The experiments were carried out at 30° C. in 384-wells black-bottom microplates in polypropylene (Greiner Bio-One, Belgium) and with orbital agitation (1000 rpm).

Experiment [2] deals with hNE-induced alveolar-capillary damage. The experiment in a line: hNE-induced acute lung injury mouse model. The conditions noted are these: nasal instillation 15 min prior to hNE 25 μg; molar ratio Nb/HNE 4/1. The format is in vivo, mice. The method, then: The in vivo efficacy of NbE201 was determined using a mouse model of acute lung injury induced by nasal instillation of HNE (L agente et al., 2009, American Thoracic Society International Conference Abstracts. (American Thoracic Society), A5668. doi: 10.1164/ajrccm-conference.2009.179.1_MeetingAbstracts.A5668). […]
It was determined with the hemoglobin assay kit (Sigma) and performed according to the manufacturer's instructions. […] A measurement of the optical density at 400 nm allowed the quantification of this stable complex. […]
Histological sections of the lung were digitized using a panoramic scan 2 (3[…]). […] This semi-automated analysis made it possible to quantify the damaged alveolar surface. […] The percentage of injured surface was determined by the ratio: % injured area=(injured area/alveolar area)×100

B1: NbE201: anti-hNE ISVD (VHH/nanobody) from immunized lama, amino acid sequence SEQ ID NO: 4 (protein)
VHH: QVQLQESGGGLVQAGGSLRLSCVVPGRTISLYRMGWFRQAPGKEREFVAGINWSGDMTDYVDSVKGRFTISRDNAKNTVYLEMNSLKPEDTAIYYCTADPKLLPLADSSYGYWGQGTQVTVSS
Regarding B1, the “binding to hNE by BLI (positive control)” value in experiment [1] is “association signal”. Moreover, in experiment [2], the “protection against hNE-induced alveolar-capillary damage” value is “protects the lungs from developing alveolar-capillary damage”.
